Data taken from publication PMC1807957.
Substitutions are numbered along the chain they refer to.

Columns and labels:
[1] = molecular target: POLγA (catalytic subunit of DNA polymerase γ);POLγB-VV (Homo sapiens?;Homo sapiens?, UniProt P54098;Q9UHN1 26-1239;26-485, |V119A;V125A); experiment: EMSA supershift
[2] = molecular target: POLγA (catalytic subunit of DNA polymerase γ) (UniProt P54098 26-1239); experiment: EMSA
[3] = molecular target: POLγA (catalytic subunit of DNA polymerase γ);POLγB-RKK (Homo sapiens?;Homo sapiens?, UniProt P54098;Q9UHN1 26-1239;26-485, |R363A;K364A;K365A); experiment: EMSA, competitor challenge
Sequence of POLγA (catalytic subunit of DNA polymerase γ);POLγB-RKK (P54098 26-1239, stated change not applied, one chain of several): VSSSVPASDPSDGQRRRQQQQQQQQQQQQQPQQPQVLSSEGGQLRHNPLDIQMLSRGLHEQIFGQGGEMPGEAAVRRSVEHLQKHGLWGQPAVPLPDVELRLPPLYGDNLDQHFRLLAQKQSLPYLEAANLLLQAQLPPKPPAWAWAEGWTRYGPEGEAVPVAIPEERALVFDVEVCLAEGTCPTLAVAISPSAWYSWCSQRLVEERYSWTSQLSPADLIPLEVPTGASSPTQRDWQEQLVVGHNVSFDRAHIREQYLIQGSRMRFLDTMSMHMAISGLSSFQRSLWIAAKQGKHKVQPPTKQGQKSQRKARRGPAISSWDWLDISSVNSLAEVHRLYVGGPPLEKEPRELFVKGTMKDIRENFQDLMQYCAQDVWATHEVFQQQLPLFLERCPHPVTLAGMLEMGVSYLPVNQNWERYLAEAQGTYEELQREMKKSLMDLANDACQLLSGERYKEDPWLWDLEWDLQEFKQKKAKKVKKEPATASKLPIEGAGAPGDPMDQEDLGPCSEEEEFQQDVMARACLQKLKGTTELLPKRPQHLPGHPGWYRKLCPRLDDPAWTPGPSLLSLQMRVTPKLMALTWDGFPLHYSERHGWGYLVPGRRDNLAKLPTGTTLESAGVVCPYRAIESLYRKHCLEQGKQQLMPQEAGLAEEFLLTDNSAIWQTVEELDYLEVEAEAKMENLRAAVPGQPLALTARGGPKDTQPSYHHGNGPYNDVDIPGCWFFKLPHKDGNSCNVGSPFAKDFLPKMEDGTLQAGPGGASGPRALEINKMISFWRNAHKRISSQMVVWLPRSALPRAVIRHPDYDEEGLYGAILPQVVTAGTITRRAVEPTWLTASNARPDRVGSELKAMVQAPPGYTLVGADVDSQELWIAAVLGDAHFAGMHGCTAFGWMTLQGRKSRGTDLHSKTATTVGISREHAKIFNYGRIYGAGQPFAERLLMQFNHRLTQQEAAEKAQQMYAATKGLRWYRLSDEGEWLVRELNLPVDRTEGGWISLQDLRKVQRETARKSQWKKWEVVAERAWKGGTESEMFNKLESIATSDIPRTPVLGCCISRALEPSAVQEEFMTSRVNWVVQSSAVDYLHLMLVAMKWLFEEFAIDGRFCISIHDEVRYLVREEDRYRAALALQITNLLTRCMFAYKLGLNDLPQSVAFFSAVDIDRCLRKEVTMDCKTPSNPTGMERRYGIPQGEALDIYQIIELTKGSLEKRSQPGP

[4] = molecular target: POLγA (catalytic subunit of DNA polymerase γ);POLγB-RK (Homo sapiens?;Homo sapiens?, UniProt P54098;Q9UHN1 26-1239;26-485, |R328A;K329A); experiment: EMSA, competitor challenge
Sequence of POLγA (catalytic subunit of DNA polymerase γ);POLγB-RK (P54098 26-1239, stated change not applied, one chain of several): as above

POLγB-VV = molecular target: T1, POLγB-VV (UniProt Q9UHN1 26-485, V119A;V125A); experiment: EMSA
T1 sequence: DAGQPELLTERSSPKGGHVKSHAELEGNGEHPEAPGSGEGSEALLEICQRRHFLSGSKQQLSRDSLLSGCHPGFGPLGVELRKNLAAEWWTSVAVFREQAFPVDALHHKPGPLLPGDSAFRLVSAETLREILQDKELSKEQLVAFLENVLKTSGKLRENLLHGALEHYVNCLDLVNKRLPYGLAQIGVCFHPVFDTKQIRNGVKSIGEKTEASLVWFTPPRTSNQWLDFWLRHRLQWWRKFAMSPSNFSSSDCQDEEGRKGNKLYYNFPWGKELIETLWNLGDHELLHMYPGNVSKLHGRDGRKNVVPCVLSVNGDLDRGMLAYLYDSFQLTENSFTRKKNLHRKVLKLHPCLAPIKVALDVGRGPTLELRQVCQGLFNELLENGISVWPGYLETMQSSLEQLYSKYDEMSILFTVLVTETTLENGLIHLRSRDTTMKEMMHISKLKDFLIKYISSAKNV

POLγB-RKK = molecular target: T2, POLγB-RKK (UniProt Q9UHN1 26-485, R363A;K364A;K365A); experiment: EMSA
T2 sequence: T1 sequence with A94V, A100V, R338A, K339A, K340A

[5] = molecular target: T3, POLγB wild type (accessory subunit of DNA polymerase γ) (UniProt Q9UHN1 26-485); experiment: EMSA
T3 sequence: T1 sequence with A94V, A100V

POLγB-RK = molecular target: T4, POLγB-RK (UniProt Q9UHN1 26-485, R328A;K329A); experiment: EMSA
T4 sequence: T1 sequence with A94V, A100V, R303A, K304A

Sequence of POLγA (catalytic subunit of DNA polymerase γ);POLγB-VV (P54098 26-1239, stated change not applied, one chain of several): as the sequence (P54098 26-1239, stated change not applied, one chain of several) above
Sequence of POLγA (catalytic subunit of DNA polymerase γ) (P54098 26-1239): as the sequence (P54098 26-1239, stated change not applied, one chain of several) above

B1: primed DNA template (35-mer/20-mer) (mixed)
DNA 1: TTTTTTTTTTATCCGGGCTCCTCTAGACTCGACCG
DNA 2: CGGTCGAGTCTAGAGGAGCC
- binding result [1]: binds
- binding result [2]: binds
- binding result [3]: binds
- binding result [4]: binds

B2: 50-bp dsDNA probe (dsDNA)
DNA 1: GGCGTATATCCAAATTAAAAGCATTTTTGATTGCATATATATCATCAGCT
DNA 2: AGCTGATGATATATATGCAATCAAAAATGCTTTTAATTTGGATATACGCC
- binding result (POLγB-VV): binds
- binding result (POLγB-RKK): no binding
- binding result [5]: binds
- binding result (POLγB-RK): no binding
